# In article PMC5642495, “Characterization of a novel androgen receptor (AR) coregulator RIPK1 and related chemicals that suppress AR-mediated prostate cancer growth via peptide and chemical screening” (Oncotarget, 2017):
# Numbering of substitutions follows the chain as printed. Ends that are not written are not given here.
# Columns and labels:
# W741L-AR = biological target: T1, W741L-AR (Homo sapiens, UniProt P10275, W742L); assay: mammalian two-hybrid (MM2H) assay, peptide interaction with W741L-AR; type: cell-based; conditions: PC-3 cells, Gal-4 = 1; for W741L-AR CDX, peptide-AR interaction in MM2H assay: CDX = 10 µM
# T1 construct: expressed in transfected cells; host or cells: PC-3
# T1 sequence (P10275 1-920 W742L): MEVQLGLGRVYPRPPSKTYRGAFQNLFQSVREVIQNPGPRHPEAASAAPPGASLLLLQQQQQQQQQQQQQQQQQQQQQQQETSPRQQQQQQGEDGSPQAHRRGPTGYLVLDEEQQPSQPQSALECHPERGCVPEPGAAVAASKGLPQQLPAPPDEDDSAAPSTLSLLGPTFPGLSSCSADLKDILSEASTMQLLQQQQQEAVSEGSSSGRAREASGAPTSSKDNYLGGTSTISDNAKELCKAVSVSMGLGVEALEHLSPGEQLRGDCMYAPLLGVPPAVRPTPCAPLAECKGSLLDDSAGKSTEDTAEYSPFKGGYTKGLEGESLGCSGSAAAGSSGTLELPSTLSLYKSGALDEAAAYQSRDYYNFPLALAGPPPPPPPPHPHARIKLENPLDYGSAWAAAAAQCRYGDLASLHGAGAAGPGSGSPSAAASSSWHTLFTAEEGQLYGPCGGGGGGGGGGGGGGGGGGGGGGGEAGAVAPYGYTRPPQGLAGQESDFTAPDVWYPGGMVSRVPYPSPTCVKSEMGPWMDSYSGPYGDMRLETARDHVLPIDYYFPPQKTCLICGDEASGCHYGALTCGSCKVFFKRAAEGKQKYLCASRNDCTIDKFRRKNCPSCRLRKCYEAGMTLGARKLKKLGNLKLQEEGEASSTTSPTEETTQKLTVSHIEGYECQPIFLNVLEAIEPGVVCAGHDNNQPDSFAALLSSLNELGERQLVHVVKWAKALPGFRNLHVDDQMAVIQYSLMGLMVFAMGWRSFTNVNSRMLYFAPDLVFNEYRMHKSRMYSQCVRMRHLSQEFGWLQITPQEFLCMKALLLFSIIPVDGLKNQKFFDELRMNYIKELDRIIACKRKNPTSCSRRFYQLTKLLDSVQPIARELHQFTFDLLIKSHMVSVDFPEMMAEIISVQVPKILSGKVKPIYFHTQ
# Source text: (§1) Using the phage display technique, we observed enrichment of FxxFY motif-containing peptides in CDX-W741L AR LBD screening. Peptide-AR interactions were further validated with the mammalian two-hybrid assay. […] The majority of these peptides additionally interacted with W741L-AR in the presence of bicalutamide. Protein database searches led to the identification of receptor-interacting protein kinase-1 (RIPK1) as a FxxFY motif-containing protein (^285FRPFY^289). RIPK1 is a kinase that plays a crucial role in inflammation and cell death. We hypothesized that RIPK1 is an AR-interacting candidate protein and the FxxFY motif is involved in mediating interactions with AR. To examine this theory, we tested the short FxxFY-containing peptide in a mammalian two-hybrid assay. […] In interacting domain mapping, the FxxFY motif of RIPK1 influenced binding to AR in the GST pull-down assay, mediating AR interactions predominantly through DBD-LBD, as depicted in Figure 1B. […] RIPK1 contains an amino-terminal kinase domain, an intermediate domain and a carboxy-terminal death domain [17]. […] We further examined tissue expression of RIPK1 in the prostate gland via immunohistochemical staining. As shown in Figure 1E and 1F, RIPK1 was enriched in benign prostate hyperplasia and non-tumor areas, but not the tumor area. In view of the collective data, we propose that RIPK1 is a bona fide AR coregulator.
# (§2) The assay procedures were performed as described previously. The PC-3 cell line was used for the mammalian two-hybrid and reporter gene assays.
# wt-AR = biological target: T2, wt-AR (Homo sapiens, UniProt P10275); assay: mammalian two-hybrid (MM2H) assay, peptide interaction with wt-AR; type: cell-based; conditions: PC-3 cells, Gal-4 = 1; for wt-AR DHT, peptide-AR interaction in MM2H assay: DHT = 10 nM
# T2 construct: expressed in transfected cells; host or cells: PC-3
# T2 sequence (P10275 1-920): T1 sequence (P10275 1-920 W742L) with L742W
# Source text: as §1, §2
Substance,"W741L-AR CDX, peptide-AR interaction in MM2H assay (W741L-AR)","W741L-AR Ethanol, peptide-AR interaction in MM2H assay (W741L-AR)","wt-AR DHT, peptide-AR interaction in MM2H assay (wt-AR)","wt-AR Ethanol, peptide-AR interaction in MM2H assay (wt-AR)"
"#3-18: positive control peptide NTNA-FSRLF-YPS (NTNAFSRLFYPS; also: fused to Gal4 DNA-binding domain, end not given here) [reference compound]",128,9,590,10
"C1-FY: phage display screened peptide SYT-FNQFY-YSTA (SYTFNQFYYSTA; also: fused to Gal4 DNA-binding domain, end not given here)",511,8,680,19
"C4-FY: phage display screened peptide SPL-FSSFY-HART (SPLFSSFYHART; also: fused to Gal4 DNA-binding domain, end not given here)",114,1,340,4
"C8-FY: phage display screened peptide GD-FKSFY-LATTW (GDFKSFYLATTW; also: fused to Gal4 DNA-binding domain, end not given here)",86,2,484,17
"C315-FY: phage display screened peptide APSLNR-FATFY-H (APSLNRFATFYH; also: fused to Gal4 DNA-binding domain, end not given here)",2,1,6,1
"C411-FY: phage display screened peptide NDTPVK-FAHFY-H (NDTPVKFAHFYH; also: fused to Gal4 DNA-binding domain, end not given here)",3,2,3,7
"C412-FY: phage display screened peptide APSDTY-FQRFY-R (APSDTYFQRFYR; also: fused to Gal4 DNA-binding domain, end not given here)",2,1,6,12
"C414-FY: phage display screened peptide NPSSM-FEKFY-LR (NPSSMFEKFYLR; also: fused to Gal4 DNA-binding domain, end not given here)",532,2,"2,653",10
"CA9-FY: phage display screened peptide SL-FTSFY-TGSGS (SLFTSFYTGSGS; also: fused to Gal4 DNA-binding domain, end not given here)",190,5,"1,517",20
"CA-10-FY: phage display screened peptide EHSM-FHSFY-VQG (EHSMFHSFYVQG; also: fused to Gal4 DNA-binding domain, end not given here)",14,4,277,12
CON-1: negative control peptide MYKP-HNHHQ-TSS (MYKPHNHHQTSS; also: fused to Gal4 DNA-binding domain (not in chain)) [reference compound],1,1,1,1
"RIP-p: short peptide of novel AR coregulator candidate RIPK1, GIEEK-FRPFY-LSQLE (GIEEKFRPFYLSQLE; also: fused to Gal4 DNA-binding domain (not in chain))",554,12,159,2
